In patent US20160200815A1 one finds IL-2 secretion by SEB-activated PBMCs (% of the activity of anti-PD-L1) and Absorbance data, which are given here for one substance.

Test [1] concerns the target human TIM-3 on cells (human) (UniProt Q8TDQ0). Briefly: cell-based or functional assay.
In test [2] the target is hTIM3-Fc murine CC′ loop (human, CC′ loop replaced by mouse TIM-3). Briefly: ELISA, construct coated on plate.
In test [3] the target is hTIM3-Fc murine BC loop (human, BC loop replaced by mouse TIM-3). Briefly: ELISA, construct coated on plate. (In general: In an ELISA, binding on a coated surface is turned into a signal by an enzyme label.)
Test [4] addresses hTIM3-Fc murine DE loop (human, DE loop replaced by mouse TIM-3). Description: ELISA, construct coated on plate.
Test [5] concerns the target hTIM3-Fc WT (human). Description: ELISA, construct coated on plate.
For test [6], the target named is hTIM3-Fc murine C′C″ loop (human, C′C″ loop replaced by mouse TIM-3). Description: ELISA, construct coated on plate.
Test [7] has as its target hTIM3-Fc murine FG loop (human, FG loop replaced by mouse TIM-3). Briefly: ELISA, construct coated on plate.

With “anti-TIM-3 mAb F38-2E2 (BioLegend, 345010) (antibody)”, in test [1], the IL-2 secretion by SEB-activated PBMCs (% of the activity of anti-PD-L1) was 50. Further, the Absorbance at 450 nm in test [2] stood at 0.094 A450; in test [3] it was 1.23 A450; in test [4], 0.978 A450; in test [5], 1.34 A450; in test [6], 1.48 A450; in test [7] it was 1.48 A450.
